# Results taken from paper PMC2884007.
# Tests used:
# [1] = target: Mimivirus cyclophilin (mimicyp), full length wild type (Mimivirus) (UniProt Q5UP71); test: crystal structure
# [2] = target: Mimivirus cyclophilin (mimicyp), full length wild type (Mimivirus) (UniProt Q5UP71); test: SEC + other: NMR
substance,measurement,setting,value
"Mimivirus cyclophilin (mimicyp), full length wild type (from UniProt Q5UP71 1-234) (natural protein)",stoichiometry N,[1],3
same,Kd,[2],50 to 500 µM
